From paper doi:10.1101/2022.10.05.510992

Target: Sodium-bicarbonate co-transporter NBCn1 (SLC4A7), native in human cells (human (endogenous in MCF-7 and HEK293T)) (UniProt Q9Y6M7)
Experiment: proximity ligation

Chain of UniProt Q9Y6M7 (Q9Y6M7 whole entry): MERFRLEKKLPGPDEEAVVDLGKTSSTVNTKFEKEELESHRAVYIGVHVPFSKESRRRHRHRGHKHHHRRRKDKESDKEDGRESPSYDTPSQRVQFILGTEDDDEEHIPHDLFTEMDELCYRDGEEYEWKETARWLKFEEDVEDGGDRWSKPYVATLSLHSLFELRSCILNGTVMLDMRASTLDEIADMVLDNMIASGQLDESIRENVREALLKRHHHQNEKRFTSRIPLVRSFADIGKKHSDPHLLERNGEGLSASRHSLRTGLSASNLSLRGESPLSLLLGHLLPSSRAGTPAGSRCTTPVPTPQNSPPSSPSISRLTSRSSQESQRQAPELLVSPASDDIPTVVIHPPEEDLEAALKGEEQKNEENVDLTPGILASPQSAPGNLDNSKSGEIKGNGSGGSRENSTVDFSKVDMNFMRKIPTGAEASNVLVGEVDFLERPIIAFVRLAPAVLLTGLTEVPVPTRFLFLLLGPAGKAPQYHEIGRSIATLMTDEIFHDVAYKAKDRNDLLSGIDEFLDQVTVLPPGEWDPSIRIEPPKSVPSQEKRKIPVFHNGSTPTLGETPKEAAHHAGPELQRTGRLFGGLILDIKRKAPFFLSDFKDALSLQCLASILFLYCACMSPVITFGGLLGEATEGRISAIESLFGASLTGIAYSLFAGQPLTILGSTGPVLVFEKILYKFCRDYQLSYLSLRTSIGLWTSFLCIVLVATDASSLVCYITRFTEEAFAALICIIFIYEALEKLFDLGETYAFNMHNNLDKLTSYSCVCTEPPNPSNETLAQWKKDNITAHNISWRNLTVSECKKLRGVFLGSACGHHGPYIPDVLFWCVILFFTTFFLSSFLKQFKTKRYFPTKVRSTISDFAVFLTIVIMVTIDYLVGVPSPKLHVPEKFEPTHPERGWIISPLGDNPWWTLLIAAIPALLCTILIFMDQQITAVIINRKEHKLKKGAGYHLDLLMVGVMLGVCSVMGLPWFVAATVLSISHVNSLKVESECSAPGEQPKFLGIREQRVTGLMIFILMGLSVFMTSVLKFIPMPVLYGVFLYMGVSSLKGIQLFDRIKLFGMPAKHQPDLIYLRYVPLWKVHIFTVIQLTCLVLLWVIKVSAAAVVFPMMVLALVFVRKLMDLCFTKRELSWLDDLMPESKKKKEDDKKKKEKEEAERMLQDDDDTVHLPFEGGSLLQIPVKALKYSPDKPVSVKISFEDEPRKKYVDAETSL

- PLA signal, fold over the NBCn1-NHE1 control: 4 fold
- PLA signal, fold over the negative control (only NBCn1 antibody): 11 fold
Substance: E-cadherin, native in MCF-7 cells (natural protein)
